Assay results as given in patent US20200299730A1.

How the values were obtained:
Test in all cases: cell-based or functional assay
[1] = biological target: MART-1 peptide pulsed on HLA-A02 expressing K562 target cells (human)
[2] = biological target: MART1 peptide-HLA (pHLA) single polypeptide chain (antigenic peptide, β2-microglobulin, HLA-A2 domains) constitutively expressed on K562 target cells (human)
[3] = biological target: MART-1 peptide pulsed on K562 target cells expressing the non-cognate MHC HLA-A01 (human)

| Substance | Cytotoxic Killing [1] | Cytotoxic Killing [2] | Cytotoxic Killing [3] | single-cell secretome (Isoplexis), CD8+ T cells producing more than one cytokine [1] |
| --- | --- | --- | --- | --- |
| MART-1 (F5) TCR expressed by lentiviral transduction (pCCLc-MND-F5TCR-Myc271), on human CD3+ T cells (TCR; unit assumed) | 38.1% | 39.4% | 8.5% | – |
| MART-1 neoTCR (F5) encoded by HR template NTC9385R-TRAC(1k)DTS_P2A.F5.TRBopt.f-P2A.TRA(Va)opt (SEQ ID NO: 10), on edited primary human T cells | – | – | – | < 40% |
| MART-1 neoTCR (F5) encoded by HR template NTC9385R-TRAC(1k)DTS_P2A.F5.TRBopt.f-P2A.TRAopt.BGHpA (SEQ ID NO: 9), on edited primary human T cells (TCR; unit assumed) | 25.6% | 34.5% | 10.6% | – |
| NY-ESO (1G4) TCR expressed by lentiviral transduction (pCCLc-MND-1G4TCR-Myc271), on human CD3+ T cells (TCR; unit assumed) | 8.7% | 8.4% | 8.3% | – |
